Measurements: paper doi:10.1101/2025.08.18.670902, “Pyrimethamine inhibits mutant NRF2 as a molecular glue” (bioRxiv, 2025)

Biological target: T1, Kelch fragment (Ala321-Glu611 of human KEAP1 protein) (human, UniProt Q14145 321-611, biotinylated (site not stated))
T1 construct: KEAP1, human, Kelch fragment Ala321-Glu611, printed MW 34,038.03 Da; Captured on a streptavidin chip through biotin; also called Kelch fragment of KEAP1; biotinylated Kelch; source: expressed in vitro, purified, biotinylated, validated by LC-MS
Test: SPR; Biacore S200, biotinylated Kelch immobilised on a streptavidin chip; peptide analyte in 2-fold dilutions 200 μM to 0.39 μM, 30 μl/min, 90 s association, 180 s dissociation, analysis at 15 °C; without PYR
Conditions: both partners purified

T1 sequence (Q14145 321-611): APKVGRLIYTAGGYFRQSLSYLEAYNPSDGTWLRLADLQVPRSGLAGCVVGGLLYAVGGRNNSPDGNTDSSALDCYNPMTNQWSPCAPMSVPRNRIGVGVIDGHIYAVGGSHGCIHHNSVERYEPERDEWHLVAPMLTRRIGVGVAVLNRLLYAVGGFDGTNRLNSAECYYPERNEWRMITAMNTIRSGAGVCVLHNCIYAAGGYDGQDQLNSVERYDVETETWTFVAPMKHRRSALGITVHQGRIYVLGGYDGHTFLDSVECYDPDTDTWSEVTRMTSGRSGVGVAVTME

B1: DLG^WT peptide (NRF2 residues 17-40) (peptide)
peptide: MDLIDILWRQDIDLGVSREVFDFS
notes: NRF2 (NFE2L2), human, residues 17-40 with the DLG motif; also called 24-mer peptide; source: synthetic peptide
B1: binds.
